This passage reports IC50 results from patent US20140377216A1, “ANTICANCER FUSION PROTEIN” (ADAMED SP. Z.O.O., priority 2011, published 2014).

One may read the IC50 as the concentration needed to halve the response being measured.

This assay deals with HCT116. The experiment in a line: MTT cytotoxicity test on HCT116. Format: cell-based, human. The conditions noted are these: continuous incubation over 72 h. A general note: Tetrazolium dyes change colour on reduction, which living cells bring about.

B1: Ex. 3^a: fusion protein SEQ. No. 3: (TRAIL121-281)-MMP-UROKIN-(SEQ. No. 35, synthetic 15-amino acids lytic peptide) (protein)
chain: RVAAHITGTRGRSNTLSSPNSKNEKALGRKINSWESSRSGHSFLSNLHLRNGELVIHEKGFYYIYSQTYFRFQEEIKENTKNDKQMVQYIYKYTSYPDPILLMKSARNSCWSKDAEYGLYSIYQGGIFELKENDRIFVSVTNEHLIDMDHEASFFGAFLVGPLGLAGRVVRKLLLRLLKKLLRLLK
modifications: synthesized, fusion protein comprising: a fragment of TRAIL protein, synthetic 15-amino acids lytic peptid and cleavage site sequences recognized by urokinase and metalloprotease.
Consider B1, for which the 50% inhibitory concentration (IC50) stood at 1.8785 µg/mL.
